Values of other authors, collected in PMC4543363.

Tests used:
[1] = molecular target: NF-κB dimer (Homo sapiens) (UniProt P19838)
NF-κB p50 (Homo sapiens) = NF-κB p50 (Homo sapiens) (UniProt P19838)

| Kd [1] [µM] | Kd (NF-κB p50 (Homo sapiens)) [µM] | Substance |
| --- | --- | --- |
| < 0.0001 | – | IκBα (from UniProt P25963) |
| – | 0.1 | NF-κB p65 (from UniProt Q04206) |
